Common to all, as to test: IEDB peptide-MHC binding, purified MHC/competitive/radioactivity; filed as Kd, often an IC50 or EC50 that approximates it; ≥ and ≤ were set here for values at or beyond the usual limits of such assays
Experiment [1] deals with HLA-A*02:06.
Experiment [2] concerns the target HLA-A*02:02.
Experiment [3] addresses HLA-A*02:03.
For experiment [4], the target named is HLA-A*33:01. Conditions: source organism: SARS coronavirus Tor2.
Experiment [5] addresses HLA-A*11:01. The note with it: source organism: SARS coronavirus Tor2.
Experiment [6] addresses HLA-A*03:01. The note with it: source organism: SARS coronavirus Tor2.
Experiment [7] addresses HLA-A*31:01. Conditions: source organism: SARS coronavirus Tor2.
The target of experiment [8] is HLA-A*68:01. The note with it: source organism: SARS coronavirus Tor2.
Setting [9] is: source organism: Vaccinia virus WR.
Setting [10] is: source organism: SARS coronavirus Tor2.
Setting [11] is: source organism: Lassa virus Josiah.
Where [12] appears, read: source organism: Dengue virus 2 Jamaica/1409/1983.
The mark [13] stands for this setting: source organism: Human immunodeficiency virus type 1 BH10.
Setting [14] is: source organism: Mammarenavirus guanaritoense.
The mark [15] stands for this setting: source organism: Vaccinia virus Copenhagen.

MLTNAISSRV: the Kd – broadly, the constant that tells how readily two partners part at equilibrium – was 224 nM in experiment [1] (setting [9]), 53 nM in experiment [2] (setting [9]) and 0.105 nM in experiment [3] (setting [9]).
For the sequence MLWCKDGHV, the Kd in experiment [1] (setting [10]) is 362 nM; in experiment [2] (setting [10]) it was 10.3 nM; in experiment [3] (setting [10]), 11 nM.
Regarding MMQNDYGGM, the Kd came out at 1660 nM in experiment [1] (setting [9]), 1080 nM in experiment [2] (setting [9]) and 2740 nM in experiment [3] (setting [9]).
Consider MSIQLINKAV, for which the equilibrium dissociation constant (Kd) in experiment [1] (setting [11]) turned out to be 619 nM; in experiment [2] (setting [11]), 11300 nM; in experiment [3] (setting [11]), 1790 nM.
Turning to NAVTTNNLL, the Kd in experiment [1] (setting [9]) was 202 nM; in experiment [2] (setting [9]), 1850 nM; in experiment [3] (setting [9]), no less than 24900 nM.
On the same counts, the results for NIEIMDKEQL are 5650 nM, 3470 nM and 15500 nM.
For NLWNTFTRL, the Kd was 166 nM in experiment [1] (setting [10]), 24 nM in experiment [2] (setting [10]) and 194 nM in experiment [3] (setting [10]).
Consider NLYISDYKM, for which the Kd in experiment [1] (setting [9]) was 11000 nM; in experiment [2] (setting [9]) it was 2790 nM; in experiment [3] (setting [9]), no less than 25300 nM.
Take NQLTYVVIAI: in experiment [1] (setting [12]), the Kd came out at 23.6 nM.
As to NVLAWLYAA, the figures for the Kd in experiment [1] (setting [10]), in experiment [2] (setting [10]) and in experiment [3] (setting [10]) were 1.58 nM, 7.31 nM and 15.3 nM, respectively.
As for PLPNFSSLNL, the Kd in experiment [1] (source organism: Homo sapiens) was no less than 56600 nM.
As for PLPVSRLVSL, the Kd in experiment [3] (source organism: Homo sapiens) was found to be 16700 nM.
PTLFGRGVI: the Kd in experiment [1] (setting [9]) is no less than 64800 nM; in experiment [2] (setting [9]), no less than 30300 nM; in experiment [3] (setting [9]) it was 6730 nM.
For QVKDNIISRT, in that order: no less than 34200 nM, 17800 nM and 421 nM.
With RIKSVLDII, the values for the Kd in experiment [1] (setting [9]), in experiment [2] (setting [9]) and in experiment [3] (setting [9]) were 2080 nM, 111 nM and 17.6 nM, respectively.
On the same counts, the results for RLPSETFPNV are 0.584 nM, 173 nM and 14.1 nM.
Take SAEDNYLAKL: the Kd in experiment [1] (setting [9]) was no less than 69800 nM; in experiment [2] (setting [9]), no less than 70000 nM; in experiment [3] (setting [9]) it was no less than 70400 nM.
For SARALKAYFT, in that order: no less than 25700 nM, no less than 21600 nM and 7810 nM.
For the sequence SASDMQKFTI, the Kd was 4250 nM in experiment [1] (setting [9]), 10800 nM in experiment [2] (setting [9]) and 1220 nM in experiment [3] (setting [9]).
Turning to SLGKAVHQV, the Kd in experiment [3] (source organism: Dengue virus 4 Philippines/H241/1956) was 14.6 nM.
In the case of SLLNATDIAV, the Kd in experiment [1] (setting [13]) is 16.6 nM; in experiment [3] (setting [13]) it was 530 nM.
Regarding SVDVDIYDA, the Kd stood at 953 nM in experiment [1] (setting [9]), 1200 nM in experiment [2] (setting [9]) and 11900 nM in experiment [3] (setting [9]).
Turning to TIAVSVYGA, the figures for the Kd in experiment [1] (setting [9]), in experiment [2] (setting [9]) and in experiment [3] (setting [9]) were 98.7 nM, 25.4 nM and 9.89 nM, respectively.
On the same counts, the results for TLPELNLSL are 802 nM, 135 nM and 22.6 nM.
As for TMSIYIAVA, the Kd in experiment [1] (setting [9]) was found to be 786 nM; in experiment [2] (setting [9]), 80.9 nM; in experiment [3] (setting [9]), 40.8 nM.
Turning to TNAEFTFQL, the Kd came out at 3620 nM in experiment [1] (setting [14]), 404 nM in experiment [2] (setting [14]) and 15000 nM in experiment [3] (setting [14]).
Take TQVKELGIAI: the Kd in experiment [1] (setting [9]) was 3.87 nM; in experiment [2] (setting [9]), 2170 nM; in experiment [3] (setting [9]) it was 704 nM.
For the sequence VLIAGIILLI, the Kd in experiment [1] (setting [15]) came to 1020 nM; in experiment [2] (setting [15]) it was 8.84 nM; in experiment [3] (setting [15]), 34.6 nM.
VLTSVDIETA: the Kd in experiment [1] (setting [9]) worked out at 1410 nM; in experiment [2] (setting [9]), 62.4 nM; in experiment [3] (setting [9]), 421 nM.
On the same counts, the results for VMYAFTTPLI are 11.6 nM, 0.718 nM and 4.82 nM.
Consider VQADSGCVV, for which the Kd in experiment [1] (setting [12]) was determined as 79.6 nM.
As for VQYRILPMII, the dissociation constant Kd in experiment [1] (setting [9]) came out at 395 nM; in experiment [2] (setting [9]), 10100 nM; in experiment [3] (setting [9]) it was 606 nM.
With VVIVENDNVI, the Kd amounted to 10700 nM in experiment [1] (setting [9]), 14700 nM in experiment [2] (setting [9]) and 10200 nM in experiment [3] (setting [9]).
With WISDNTHIYL, the values for the Kd in experiment [1] (setting [9]), in experiment [2] (setting [9]) and in experiment [3] (setting [9]) were 1.77 nM, 0.143 nM and 1.16 nM, respectively.
Consider YASALVLLI, for which the Kd in experiment [1] (setting [10]) is 8.7 nM; in experiment [2] (setting [10]) it was 3.2 nM; in experiment [3] (setting [10]), 4.87 nM.
On to YLLFNHFSV, for which the Kd in experiment [1] (setting [9]) was 0.725 nM; in experiment [2] (setting [9]), 1.24 nM; in experiment [3] (setting [9]), 1.59 nM.
As for YMSALNHTK, the Kd in experiment [4] was 1120 nM; in experiment [5] it was 48.4 nM; in experiment [6], 108 nM; in experiment [7], 642 nM; in experiment [8], 3.43 nM.

For the origin of these results see the Immune Epitope Database (IEDB).
